We go through 30 sequences from the supplement of paper PMC9170038.

The data set deals with MS2 coat protein. Briefly: apparent KD of MS2 coat protein; designed switch direction (-1 OFF switch, 1 ON switch): -1; higher = weaker reporter binding. In a few lines: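 On Illumina chips, designed RNA switches with common flanks were made by stalled E. coli RNA polymerase. Titrations with SNAP-549-labelled MS2 coat protein, doubling from 0.7 or 1.5 nM to 3 µM, were done with no input, with 200 uM small-molecule ligand, or with an oligonucleotide input. Apparent KD is the median per design over clusters, from curve fits of normalised cluster fluorescence.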

[1] abbreviates: input ligand: microRNA oligo, concentration not stated.
Setting [2] is: Eterna round: R95, input ligand: microRNA oligo, concentration not stated.

Consider “GGAAGAGAGAUAGGAUAUUAAAGGAAGAUGGUGAGAGAGACAUGAGGAUCACCCAUGUAAAGGAAUAAGAAGGGUCAGAAGGAA [EXNG2 V2 g] (Eterna round: R96, puzzle: Exclusion NG 2)”, for which the “apparent KD of MS2 coat protein” value reads like this: (input ligand: FMN 200 uM) 137 nM; under setting [1], 104 nM; (input ligand: none) 184 nM.

For the sequence “GGAAGGAGUGUCAGGAUAUCCGGAGGGAAACCUCCGGAGAAGGGACAUGAGGAUCACCCAUGUAGAGGAAGGAG [AK-MS2ROC-r4-Bmoexclusion4-9] (Eterna round: R97, puzzle: Brourd's mod of Exclusion 4)”, the “apparent KD of MS2 coat protein” value was 561 nM (input ligand: FMN 200 uM) and 441 nM (input ligand: none).

Turning to “GGAAUGUAAGGAUAUCCGAAAGGAAGGAGAGGGAGAGGGAAGGAGAAGGUACAUGAGGAUCACCCAUGUAAGGG [AK-MS2ROC-r4-exclusion4-9] (Eterna round: R97, puzzle: Exclusion 4)”, the “apparent KD of MS2 coat protein” value reads like this: (input ligand: FMN 200 uM) 88.5 nM; (input ligand: none) 69.2 nM.

Regarding “GGACCUGGAGGAUAUAGAGCACUGAACAUGAGGAUCACCCAUGUGACCGGUGUAGUGCACCUAGAAGGCCGCGGCA [Eternabot (L1) Solution 40] (Eterna round: R97, puzzle: Exclusion 5)”, the “apparent KD of MS2 coat protein” value amounted to 129 nM (input ligand: FMN 200 uM) and 65.4 nM (input ligand: none).

Consider “GGAGAGGGAGGAUAUGCGCCAACAAACAUGAGGAUCACCCAUGUGGUGCUCCAAGAAAGGGUAGAAGGCCCUCUCC [Default title] (puzzle: Exclusion 5)”, for which the “apparent KD of MS2 coat protein” value runs as follows: (Eterna round: R95, input ligand: FMN 200 uM) 619 nM; under setting [2], 275 nM; (Eterna round: R95, input ligand: none) 295 nM.

As to “GGAGCUGGAGGAUAUACAAGAUCGAAAGAUCAAAGAUCCGUACAUGAGGAUCACCCAUGUAGAAGGCCAGCUCC (Eterna round: R97, puzzle: Exclusion 2)”, the “apparent KD of MS2 coat protein” value reads like this: (input ligand: FMN 200 uM) 763 nM; (input ligand: none) 40.4 nM.

Turning to “GGAGGACGAGCAGGAUAUUUUCACAUGAGGAUCACCCAUGUGUACUCAGGGUAAUCCUCCGCCGAAAAGAAGGGUUCGGAAGAA [JL ViennaUCT Socedi mod 1] (Eterna round: R96, puzzle: Exclusion NG 2)”, the “apparent KD of MS2 coat protein” value reads like this: (input ligand: FMN 200 uM) 46.7 nM; under setting [1], 33.2 nM; (input ligand: none) 50.8 nM.

In the case of “GGAGUGUAAGGAUAUAAGACAAGGGCUAUCGGAGCCCAAAUUUAGAAGGUACAUGAGGAUCACCCAUGUGAUGA [Eternabot (L1) Solution 5] (Eterna round: R97, puzzle: Exclusion 4)”, the “apparent KD of MS2 coat protein” value is, setting by setting: (input ligand: FMN 200 uM) 124 nM; (input ligand: none) 27.2 nM.

In the case of “GGAUAAAACUGAGGAUAUACGUAUCGCUAGCGAGUAGAAGGCAGACAUGAGGAUCACCCAUGUGAGUUCUCGAUAAGAAACACG [Prohibition 60 - Jieux - Exclusion NG 1] (Eterna round: R96, puzzle: Exclusion NG 1)”, the “apparent KD of MS2 coat protein” value reads like this: (input ligand: FMN 200 uM) 163 nM; under setting [1], 35.5 nM; (input ligand: none) 53.3 nM.

In the case of “GGAUAAAAGACAGGAUAUACGCACCACUAACGAGUAGAAGGGUCACAUGAGGAUCACCCAUGUGAGUUCUCAAUAAGAAACACG [Prohibition 67 - Jieux - Exclusion NG 1] (Eterna round: R96, puzzle: Exclusion NG 1)”, the “apparent KD of MS2 coat protein” value runs as follows: (input ligand: FMN 200 uM) 14.2 nM; under setting [1], 16.9 nM; (input ligand: none) 17.3 nM.

“GGAUAAAAUCGAGGAUAUACGCACCACUAACGAGUAGAAGGCGAACAUGAGGAUCACCCAUGUGAGUUCUCAAUAAGAAACACG [Prohibition 68 - Jieux - Exclusion NG 1] (Eterna round: R96, puzzle: Exclusion NG 1)”: the “apparent KD of MS2 coat protein” value (input ligand: FMN 200 uM) was 40.5 nM, the “apparent KD of MS2 coat protein” value under setting [1] turned out to be 23.9 nM and the “apparent KD of MS2 coat protein” value (input ligand: none) stood at 35.1 nM.

In the case of “GGAUCACAUGUGAGGAUAUGCAGGUCCUUGGAUCUGCAGAAGGCACAUGAGGAUCACCCAUGUGAUCAAGAUCC [Mat - Exclusion 4 - Eli Mod - D49] (Eterna round: R97, puzzle: Brourd's mod of Exclusion 4)”, the “apparent KD of MS2 coat protein” value (input ligand: FMN 200 uM) came to 47.4 nM and the “apparent KD of MS2 coat protein” value (input ligand: none) came out at 61.2 nM.

In the case of “GGAUCGAGUGUGAGGAUAUGCUGGUCCUAAGAUCAGCAGAAGGCACAUGAGGAUCACCCAUGUGAAAACGGUCC [Mat - Exclusion 4 - JL Mod - D71] (Eterna round: R96, puzzle: Brourd's mod of Exclusion 4)”, the “apparent KD of MS2 coat protein” value stood at 183 nM (input ligand: FMN 200 uM), 24.2 nM under setting [1] and 29.3 nM (input ligand: none).

In the case of “GGAUCGAGUGUGAGGAUAUGCUGGUCCUAAGAUCAGCAGAAGGCACAUGAGGAUCACCCAUGUGAAAACGGUCC [Mat - Exclusion 4 - JL Mod - D71] (puzzle: Brourd's mod of Exclusion 4)”, under setting [2], the “apparent KD of MS2 coat protein” value was determined as 23.5 nM.

In the case of “GGAUUCCAGUGAGGAUAUCCAAAUAAAAGCCAUGGAGAAGGCACAUGAGGAUCACCCAUGUAGGGCAAUAGCAGCGACCGCUGC [Usxeer] (Eterna round: R96, puzzle: Exclusion NG 1)”, the “apparent KD of MS2 coat protein” value worked out at 60.8 nM (input ligand: FMN 200 uM), 20.7 nM under setting [1] and 35.1 nM (input ligand: none).

“GGAUUUACUGAGGAUAUUGCAUCACCCGACUGAUAAGAAGGCAGAACAUGAGGAUCACCCAUGUGGGUAGUCAA [Bingo-Bango-3] (Eterna round: R97, puzzle: Exclusion 6)”: the “apparent KD of MS2 coat protein” value was 29.6 nM (input ligand: FMN 200 uM) and 19.5 nM (input ligand: none).

Regarding “GGAUUUACUGAGGAUAUUGCAUCACCCGAUUGAUAAGAAGGCAGAACAUGAGGAUCACCCAUGUGGGUAGUCAA [Bingo-Bango-2] (Eterna round: R97, puzzle: Exclusion 6)”, the “apparent KD of MS2 coat protein” value runs as follows: (input ligand: FMN 200 uM) 80.2 nM; (input ligand: none) 39.3 nM.

Consider “GGCAUCGGAGGAUAUACUUAUGGUGAUGUUCGAAGCUUUCUACUUGAGGAUCACCCAAGUAGAAGGCCGAUGCC [jl-ex2.4.78 ViennaUCT mod] (Eterna round: R97, puzzle: Exclusion 2)”, for which the “apparent KD of MS2 coat protein” value (input ligand: FMN 200 uM) turned out to be 5.28 nM and the “apparent KD of MS2 coat protein” value (input ligand: none) came to 17.4 nM.

Consider “GGCGAGCGAGGAUAUACAGGGUAUCCGACUCGCCGCGGGCGACAUGAGGAUCACCCAUGUAGAAGGCGCACGCG [EX2 A.18] (Eterna round: R97, puzzle: Exclusion 2)”, for which the “apparent KD of MS2 coat protein” value came to 13.9 nM (input ligand: FMN 200 uM) and 17.6 nM (input ligand: none).

Regarding “GGCGCACAUGAGGAUCACCCAUGUGAGGAUAUGUGGCGAUCGUCGAUAGACGAUAGCCACAGAAGGCACAUGCC [Mat - Exclusion 1 - Eli Mod - D20] (Eterna round: R97, puzzle: Exclusion 1)”, the “apparent KD of MS2 coat protein” value was found to be 74 nM (input ligand: FMN 200 uM) and 33.3 nM (input ligand: none).

As to “GGCUAGUGAGGAUAUACGUGCAGUCCUCAGUCGCCAGUCGGACAUGAGGAUCACCCAUGUAGAAGGUAUCGGCA [Beesraat] (puzzle: Exclusion 2)”, the “apparent KD of MS2 coat protein” value under setting [2] was 30.2 nM.

Take “GGCUGACGCGGUAGGCCUUACAUGAGGAUCACCCAUGUCGAUGCCAUUCCAAAACACGGGUUUGAGGUUCGUCAUUG [Eternabot (L1) Solution 46] (Eterna round: R97, puzzle: Sensor, turn-off variant 1)”: the “apparent KD of MS2 coat protein” value is, setting by setting: (input ligand: FMN 200 uM) 99.7 nM; (input ligand: none) 100 nM.

Take “GGGAAACAUGAGGAUCACCCAUGUCAGGAUAUCCGCUUUAAUUAAAUAAAUAAAUAAUGGAGAAGGGACAGCCC [-12.9, -10.5 kcal, 39% A] (Eterna round: R97, puzzle: Exclusion 1)”: the “apparent KD of MS2 coat protein” value is, setting by setting: (input ligand: FMN 200 uM) 33.6 nM; (input ligand: none) 33.7 nM.

“GGGAACCGAGGAUAUCAGUACACGCACAUGAGGAUCACCCAUGUGCUCCUCGGUGCUGUCUGAGAAGGCGGUGAGA [Raonxe] (Eterna round: R97, puzzle: Exclusion 5)”: the “apparent KD of MS2 coat protein” value is, setting by setting: (input ligand: FMN 200 uM) 26.9 nM; (input ligand: none) 17.6 nM.

Consider “GGGAAGAACCAACAAGCAAACAUGAGGAUCACCCAUGUAGUAGGAGGAAGAAAGGUGAUUUAGAAAGCUCGACUUAU [AK-miRNA-r3-6] (Eterna round: R97, puzzle: Sensor, turn-off variant 1)”, for which the “apparent KD of MS2 coat protein” value (input ligand: FMN 200 uM) came to 159 nM and the “apparent KD of MS2 coat protein” value (input ligand: none) turned out to be 202 nM.

“GGGCCUCAUGUGAGGAUAUUGGAUGAGGUGCGAGACGAGAAGGCACAUGAGGAUCACCCAUGUAACUAACCAAA [Bimaen] (Eterna round: R97, puzzle: Brourd's mod of Exclusion 4)”: the “apparent KD of MS2 coat protein” value (input ligand: FMN 200 uM) was found to be 34.8 nM and the “apparent KD of MS2 coat protein” value (input ligand: none) turned out to be 85 nM.

Turning to “GGGCUCACGGUCAGGAUAUGUAAAACGUAAGUAUUAUAGAAGGGACAUGAGGAUCACCCAUGUGUGAUGAGCGC [Eternabot (L1) Solution 37] (Eterna round: R97, puzzle: Brourd's mod of Exclusion 4)”, the “apparent KD of MS2 coat protein” value turned out to be 323 nM (input ligand: FMN 200 uM) and 124 nM (input ligand: none).

In the case of “GGGCUCGGUGUGAGGAUAUGCUCGGGUAAACUCGGGCAGAAGGCACAUGAGGAUCACCCAUGUAAGUCGGGCUC [-28.5, -27.4 kcal, A 23%, 4bis-4] (Eterna round: R97, puzzle: Brourd's mod of Exclusion 4)”, the “apparent KD of MS2 coat protein” value worked out at 18.6 nM (input ligand: FMN 200 uM) and 18 nM (input ligand: none).

For the sequence “GGGCUGCGACACAGCCCAACAAAACAUGAGGAUCACCCAUGUCAGGAUAUACCGAUGCAGCAUCUGUAGAAGGGACAGAUCCAA [Usorxe] (Eterna round: R96, puzzle: Exclusion NG 3)”, the “apparent KD of MS2 coat protein” value runs as follows: (input ligand: FMN 200 uM) 120 nM; under setting [1], 88.1 nM; (input ligand: none) 66.3 nM.

In the case of “GGGUGACAUGAGGAUCACCCAUGUCAGGAUAUGGGCCCGGGCCCGAAAGGGUUUGGGCCCAGAAGGGACUGCCC [-44.5, -43.5 kcal, 22%A (-3 GC series)] (Eterna round: R97, puzzle: Exclusion 1)”, the “apparent KD of MS2 coat protein” value is, setting by setting: (input ligand: FMN 200 uM) 145 nM; (input ligand: none) 50.3 nM.
